Measured values as given in US20030171279A1.

Tests used:
[1] = target: mouse BAD (murine BAD pro-apoptotic polypeptide) (mouse) (UniProt Q61337); experiment: cell-based or functional assay
[2] = target: T1, mouse BAD (murine BAD pro-apoptotic polypeptide)
T1 chain: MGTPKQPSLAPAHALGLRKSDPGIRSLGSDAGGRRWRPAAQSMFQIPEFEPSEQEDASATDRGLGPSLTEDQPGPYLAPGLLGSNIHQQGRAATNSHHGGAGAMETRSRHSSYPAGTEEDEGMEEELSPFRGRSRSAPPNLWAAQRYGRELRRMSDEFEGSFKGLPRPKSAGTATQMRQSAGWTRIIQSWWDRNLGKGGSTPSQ

[3] = target: T2, HSV-1 UL34 protein, P10218
T2 chain: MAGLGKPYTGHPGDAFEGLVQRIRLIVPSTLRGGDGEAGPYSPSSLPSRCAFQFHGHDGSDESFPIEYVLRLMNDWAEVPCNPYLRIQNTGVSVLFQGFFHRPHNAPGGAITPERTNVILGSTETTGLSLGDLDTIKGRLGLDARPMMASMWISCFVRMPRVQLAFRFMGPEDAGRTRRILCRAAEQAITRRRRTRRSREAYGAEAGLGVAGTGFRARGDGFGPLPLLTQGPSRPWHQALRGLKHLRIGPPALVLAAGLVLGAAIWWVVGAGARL

Row | Molecule | DEVDase activity (fold increase over mock-infected cells) (fold increase) [1] | DNA fragmentation (agarose gel) [2] | cleavage of poly(ADP-ribose) polymerase (Mr 85,000 PARP cleavage product, immunoblot) [2] | electrophoretic mobility and total amount of BAD (immunoblot with anti-BAD antibody) [2] | levels of BAD phosphorylated at ser136, ser155 and ser112 (immunoblot with phospho-specific antibodies) [2] | processing of UL34 protein (apparent Mr 30,000 against 33,000; 32P labelling and UL34 immunoblot) [3]
1 | herpes simplex virus 1 (HSV-1) US3 protein kinase (from UniProt P04413 1-481) (enzyme) | < 2 |  |  |  |  | 
2 | herpes simplex virus 1 (HSV-1) US3 protein kinase (protein) MACRKFCRVYGGQGRRKEEAVPPETKPSRVFPHGPFYTPAEDACLDSPPPETPKPSHTTPPSEAERLCHLQEILAQMYGNQDYPIEDDPSADAADDVDEDAPDDVAYPEEYAEELFLPGDATGPLIGANDHIPPPCGASPPGIRRRSRDEIGATGFTAEELDAMDREAARAISRGGKPPSTMAKLVTGMGFTIHGALTPGSEGCVFDSSHPDYPQRVIVKAGWYTSTSHEARLLRRLDHPAILPLLDLHVVSGVTCLVLPKYQADLYTYLSRRLNPLGRPQIAAVSRQLLSAVDYIHRQGIIHRDIKTENIFINTPEDICLGDFGAACFVQGSRSSPFPYGIAGTIDTNAPEVLAGDPYTTTVDIWSAGLVIFETAVHNASLFSAPRGPKRGPCDSQITRIIRQAQVHVDEFSPHPESRLTSRYRSRAAGNNRPPYTRPAWTRYYKMDIDVEYLVCKALTFDGALRPSAAELLCLPLFQQK |  | DNA fragmentation was not observed in extracts of Bac-Bad treated cells that had been previously exposed to Bac-US3 | readily detected in mock- or in Bac-WT-infected cells that had been exposed to Bac-Bad, but not in Bac-US3 infected cells that had been exposed to Bac-Bad | migrated more slowly and was significantly reduced in amount relative to those detected in lysates of cells exposed to BAC-WT or mock-infected prior to exposure to Bac-BAD | The levels of BAD phosphorylated at ser136, ser155, and ser112 present in cells mock infected were similar to those present in cells infected with Bac-WT or Bac-US3 | the fully processed UL34 protein was present in cells infected with HSV-1(F) but not cells infected with 120FR or R7041
